Measured values: US6495314 (Scripps Research, dated 2002)
Residue numbers refer to the chain shown, from its start. Numbers in names are those of the source. No end group written: not given here.

T1: Ac-CWAcp-PPPALPPKKR.amide, C3G-derived peptide designed for attachment to an affinity column (N-terminal acetyl; ε-aminocaproic acid (Acp, B) at position 3; C-terminal amide; on the column the Cys side chain is coupled to iodoacetyl agarose (Sulfolink))
T1 construct: also called Acetyl-CWAcp-C3G; Ac-CWBPPPALPPKKR.amide
T1 peptide: CWPPPALPPKKR

B1: control peptide Ac-CAcpYGGFL.amide (YGGFL = leucine enkephalin) (peptide)
peptide: Ac-CYGGFL-NH2
modifications: not fully specified (residue 1); also: Cys side chain coupled to Sulfolink agarose
notes: also called Ac-CBYGGFL.amide; Leucine-Enkephalin agarose column
B2: C3G-derived peptide PPPALPPKKR.amide (peptide)
peptide: PPPALPPKKR-NH2
notes: also called C3G peptide
B3: c-Crk N-terminal SH3 domain (134-191) analogue, dipeptide LR (159-160) replaced by Gly-[COS]-βAla (other)
chain: AEYVRALFDFNGNDEEDLPFKKGDIGXIRDKPEEQWWNAEDSEGKRGMIPVPYVEKYR
modifications: not fully specified; Gly-[COS]-βAla unit (-NH-CH2-CO-S-CH2-CH2-CO-) in place of L159-R160; backbone thioester
notes: Positions count on murine c-Crk; X = -S-CH2CH2-CO- unit; also called Gly-SβAla analogue
B4: c-Crk N-terminal SH3 domain (134-191) analogue, dipeptide IL (158-159) replaced by Gly-[COS]-βAla (other)
chain: B3 chain with I25G, G26X, X27R
modifications: not fully specified; Gly-[COS]-βAla unit (-NH-CH2-CO-S-CH2-CH2-CO-) in place of I158-L159; backbone thioester
notes: as for B3
B5: c-Crk N-terminal SH3 domain (134-191) analogue, K^164P^165 replaced by Gly-[COS]-βAla (other)
chain: B3 chain with G26L, X27R, K31G, P32X
modifications: not fully specified; Gly-[COS]-βAla unit (-NH-CH2-CO-S-CH2-CH2-CO-) in place of K164-P165; backbone thioester
notes: Positions count on murine c-Crk; X = -S-CH2CH2-CO- unit; also called KP; Gly-SβAla analogue
B6: c-Crk N-terminal SH3 domain (134-191) analogue, dipeptide RI (160-161) replaced by Gly-[COS]-βAla (other)
chain: B3 chain with G26L, X27G, I28X
modifications: not fully specified; Gly-[COS]-βAla unit (-NH-CH2-CO-S-CH2-CH2-CO-) in place of R160-I161; backbone thioester
notes: as for B3
B7: c-Crk N-terminal SH3 domain (134-191) analogue, D^163K^164 replaced by Gly-[COS]-βAla (other)
chain: B3 chain with G26L, X27R, D30G, K31X
modifications: not fully specified; Gly-[COS]-βAla unit (-NH-CH2-CO-S-CH2-CH2-CO-) in place of D163-K164; backbone thioester
notes: Positions count on murine c-Crk; X = -S-CH2CH2-CO- unit; also called DK; Gly-SβAla analogue
B8: c-Crk N-terminal SH3 domain (134-191) analogue, R^162D^163 replaced by Gly-[COS]-βAla (other)
chain: B3 chain with G26L, X27R, R29G, D30X
modifications: not fully specified; Gly-[COS]-βAla unit (-NH-CH2-CO-S-CH2-CH2-CO-) in place of R162-D163; backbone thioester
notes: Positions count on murine c-Crk; X = -S-CH2CH2-CO- unit; also called RD; Gly-SβAla analogue
B9: c-Crk N-terminal SH3 domain (134-191) analogue, I^161R^162 replaced by Gly-[COS]-βAla (other)
chain: B3 chain with G26L, X27R, I28G, R29X
modifications: not fully specified; Gly-[COS]-βAla unit (-NH-CH2-CO-S-CH2-CH2-CO-) in place of I161-R162; backbone thioester
notes: Positions count on murine c-Crk; X = -S-CH2CH2-CO- unit; also called IR; Gly-SβAla analogue
B10: c-Crk N-terminal SH3 domain (134-191) analogue, dipeptide DI (157-158) replaced by Gly-[COS]-βAla (other)
chain: B3 chain with D24G, I25X, G26L, X27R
modifications: not fully specified; Gly-[COS]-βAla unit (-NH-CH2-CO-S-CH2-CH2-CO-) in place of D157-I158; backbone thioester
notes: as for B3
B11: c-Crk N-terminal SH3 domain (134-191) analogue, dipeptide GD (156-157) replaced by Gly-[COS]-βAla (other)
chain: B3 chain with D24X, G26L, X27R
modifications: not fully specified; Gly-[COS]-βAla unit (-NH-CH2-CO-S-CH2-CH2-CO-) in place of G156-D157; backbone thioester
notes: G156 stays Gly; Positions count on murine c-Crk; X = -S-CH2CH2-CO- unit; also called Gly-SβAla analogue
B12: c-Crk N-terminal SH3 domain (134-191) analogue, L^151P^152 replaced by Gly-[COS]-βAla (other)
chain: B3 chain with L18G, P19X, G26L, X27R
modifications: not fully specified; Gly-[COS]-βAla unit (-NH-CH2-CO-S-CH2-CH2-CO-) in place of L151-P152; backbone thioester
notes: Positions count on murine c-Crk; X = -S-CH2CH2-CO- unit; Tested crude in a pooled array; also called LP
B13: c-Crk N-terminal SH3 domain (134-191) analogue, dipeptide PF (152-153) replaced by Gly-[COS]-βAla (other)
chain: B3 chain with P19G, F20X, G26L, X27R
modifications: not fully specified; Gly-[COS]-βAla unit (-NH-CH2-CO-S-CH2-CH2-CO-) in place of P152-F153; backbone thioester
notes: It is one of the 19 dipeptide positions within c-Crk(146-165); Positions count on murine c-Crk; X = -S-CH2CH2-CO- unit; Tested crude in a pooled array
B14: c-Crk N-terminal SH3 domain (134-191) analogue, dipeptide KK (154-155) replaced by Gly-[COS]-βAla (other)
chain: B3 chain with K21G, K22X, G26L, X27R
modifications: not fully specified; Gly-[COS]-βAla unit (-NH-CH2-CO-S-CH2-CH2-CO-) in place of K154-K155; backbone thioester
notes: as for B13
B15: c-Crk N-terminal SH3 domain (134-191) analogue, N^146D^147 replaced by Gly-[COS]-βAla (other)
chain: B3 chain with N13G, D14X, G26L, X27R
modifications: not fully specified; Gly-[COS]-βAla unit (-NH-CH2-CO-S-CH2-CH2-CO-) in place of N146-D147; backbone thioester
notes: Positions count on murine c-Crk; X = -S-CH2CH2-CO- unit; Tested crude in a pooled array; also called ND

Molecular target: T2, synthetic murine cCrk N-terminal SH3 domain (residues 134-191) (murine, UniProt Q64010 134-191)
T2 construct: Made by total chemical synthesis and folded in HEPES/NaCl buffer; also called cCrk(134-191); c-Crk SH3
Assay: control peptide affinity column

Row | binding result | Binder
1 | no binding | B1

Molecular target: T2, synthetic murine cCrk N-terminal SH3 …
Assay: in solution; method not stated in the legend
Experimental: (§1) The resulting synthetic protein domain was then assayed for its affinity for two different proline-rich peptides. […] This change in solvent exposure leads to an increase in the fluorescence intensity of the tryptophan sidechain which can be monitored as a function of increasing ligand concentration (Feng et al. *Science* 1994.266, 1241–1245).
(§2) 1994, 3, 1261–1266. The purified and lyophilized 58 residue polypeptide chain (0.2 mg) was folded by dissolving in 0.6 mL of 20 mM Hepes, 60 mM NaCl, pH 7.3 to produce a folded protein solution (~50 μM).
Target sequence in this assay (Q64010 134-191 limits assumed): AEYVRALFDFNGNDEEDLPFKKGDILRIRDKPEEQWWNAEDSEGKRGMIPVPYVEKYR

Row | Kd [nM] | Binder
2 | 2300 | B2

Molecular target: B1
Assay: nine-member array on control peptide column, A280
Experimental: (§3) The column was then washed with 0.5 M NaCl buffer to remove nonspecific binding proteins from the column. Specifically bound protein analogues were then eluted with 1 M hydroxylamine bufffer. Amounts of eluted peptide were monitored by UV absorbance at 280 nm. This procedure was used for both the C3G peptide column and for the control column loaded with Ac-C-AcpYGGFL.amide.
(§4) Affinity chromatography of the arrays of protein analogues was carried out as follows. […] After incubation at room temperature for a period of 6–8 hours the column was washed with 0.5 M NaCl in 0.1 M sodium phosphate, pH 7.0 buffer (6×1 mL) to remove any non-specifically bound proteins. The first two 1 mL fractions were collected and immediately mixed with an equal volume of 1 M NH_2OH, 20 mM NH_4HCO_3, pH 5.5 buffer to cleave any thioester-containing protein analogues. […] Samples of the eluted fractions were monitored by UV absorbance at 280 nm. This procedure was used for both the C3G peptide column and for the control column loaded with Ac-C-Acp-YGGFL.amide. To accommodate MALDI analysis, both the 0.5M NaCl wash and 1 M NH_2OH fractions were desalted on a low pressure, disposable C-18 column, washed with HPLC buffer A and peptide fragments eluted with 1.5 mL 60% acetonitrile in water, 0.1% TFA.

Row | binding result | Binder
3 | no binding | B3
4 | no binding | B4
5 | no binding | B5
6 | no binding | B6
7 | no binding | B7
8 | no binding | B8
9 | no binding | B9
10 | no binding | B10
11 | no binding | B11

Molecular target: T1, Ac-CWAcp-PPPALPPKKR.amide, C3G-derived …
Assay: 19-member array on C3G peptide affinity column, MALDI MS readout

Row | binding result | Binder
12 | binds | B12
13 | no binding | B3
14 | no binding | B4
15 | no binding | B13
16 | binds | B5
17 | no binding | B6
18 | binds | B7
19 | no binding | B14
20 | binds | B15
21 | binds | B8
22 | binds | B9
23 | no binding | B10

Molecular target: T2, synthetic murine cCrk N-terminal SH3 …
Assay: tryptophan fluorescence titration in solution, 12 hours incubation
Experimental: as §1, §2

Row | Kd [nM] | Binder
24 | 1800 | B2

Molecular target: T1, Ac-CWAcp-PPPALPPKKR.amide, C3G-derived …
Assay: Example 2: nine-member array on C3G peptide affinity column, MALDI MS readout
Experimental: as §3, §4

Row | binding result | Binder
25 | no binding | B11
